Values quoted from earlier work, collected in PMC3324669.

Biological target: CD155 (Homo sapiens) (UniProt P15151)

Kd: 2 nM
Substance: CD226 (from UniProt Q15762)
